Data taken from patent US20250018037A1 (SEOUL NATIONAL UNIVERSITY R AND DB FOUNDATION, published 2025).
No end group written: not given here.

Key:
[1] = molecular target: T1, Biotin conjugated 6×His peptide (also: biotin conjugated, site not given here); experiment: SPR, Biacore 8K, CM5 chip; biotin 6×His peptide captured on streptavidin, scFv injected in 2-fold dilutions
T1 construct: also called histidine hexamer peptide
T1 peptide: HHHHHH
Description: (§1) Since the murine anti-His antibody had decreased binding affinity against 6×His peptide after humanization, affinity maturation was further performed to increase it and chicken anti-CD40 antibody (2B1) was only humanized. Serial dilution antibodies at 6 concentrations were used to characterize the kinetics of antibody-antigen binding by SPR. […] So, there was not affinity loss against their antigen after humanization (FIG. 22B).
(§2) A Biacore 8K SPR system (Cytiva) equipped with CM5 sensor chip (Cytiva) was used to generate binding kinetic rate and affinity constants. To prepare the capture surfaces for anti-His antibodies, streptavidin was immobilized, followed by biotin conjugated 6×His peptide was captured. The antibodies were 2-fold serial diluted with 1×PBS, then injected at a flow rate of 30 μL/min for 3 minutes, allowing 10 minutes dissociation phase. The surface was regenerated using 10 mM glycine, pH 1.5. The kinetics were analyzed using Biacore 8K evaluation software, version 1.0 (Cytiva). In case of anti-CD40 antibodies, anti-human Fc IgG (Jackson ImmunoResearch) was immobilized, and then CD40-hFc protein (Acro Biosystems, #CD0-H5253) was captured. The antibodies were 2-fold serial diluted with HBS-EP+ buffer (10 mm HEPES, 150 mm sodium chloride, 3 mm EDTA, 0.05% Polysorbate 20), then injected at a flow rate of 30 μL/min for 4 minutes, allowing >15 minutes dissociation phase.

[2] = molecular target: T1, Biotin conjugated 6×His peptide; experiment: SPR, Biacore 8K; reference is the parental murine anti-His antibody
Description: as §1, §2

[3] = molecular target: T1, Biotin conjugated 6×His peptide; experiment: SPR (Biacore 8K): biotin 6×His peptide captured on immobilized streptavidin, scFv injected in 2-fold dilutions (6 curves)
Description: as §1, §2

B1: Humanized and affinity maturated anti-His scFv (hu3D5M) (scFv)
scFv: DIVMTQSPLSLPVTPGEPASISCRSSQSIVHSNRNTYLEWYLQKPGQSPQLLIYKVSNRFSGVPDRFSGSGSGTDFTLKISRVEAEDVGVYYCFQGSHVPFTFGQGTKLEIKRGGGGSGGGGSGGGGSGGGGSQVQLVQSGAEVKKPGASVKVSCKASGYTFTDYYMNWVRQAPGQGLEWMGDINPNHGGTYYNHKFKGRVTMTVDTSTSTAYMELRSLRSDDTAVYYCESQSGAYWGQGTTVTVSS
notes: also called humanized anti-His
Kd [1]: 2.15 nM | fold higher affinity than parental antibody [2]: 5.8 fold | koff [3]: 0.00094 s⁻¹ | kon [3]: 437000 M⁻¹ s⁻¹
